# Source: patent US20210009668A1 (ROCHE DIAGNOSTICS OPERATIONS, published 2021)
# Molecular target: T1, recombinant human cardiac troponin T (human, UniProt P45379 2-298)
# T1 construct: In the ECL assay the cTnT came from the Troponin T hs CalSet calibrator; also called cTnT; TnT
# Assay: SPR (Biacore T200, 37 C), Fab captured, cTnT analyte
# Method: (§1) Detailed kinetic investigations were performed at 37° C. on a GE Healthcare T200 instrument. A Biacore CM-5 series S sensor was mounted into the instrument and was preconditioned according to the manufacturer's instructions. The system buffer was HBS-ET (10 mM HEPES (pH 7.4), 150 mM NaCl, 1 mM EDTA, 0.05% (w/v) Tween® 20). The sample buffer was the system buffer supplemented with 1 mg/ml CMD (Carboxymethyldextran, Fluka). In one embodiment an anti-human antibody capture system was established on the CMS biosensor. GAHF(ab′)2, (goat anti human F(ab′)2) (Code Nr.: 109-005-097, lot #13.12.2005, Jackson Immuno Research) was immobilized according to the manufacturer's instructions using NHS/EDC chemistry. 30 μg/ml GAHF(ab′)2 in 10 mM sodium acetate buffer (pH 5.0) were preconcentrated to the flow cells 1, 2, 3 and 4 and were immobilized with 10.000 RU GAHF(ab′)2. The sensor was subsequently saturated with 1 M ethanolamine pH 8.5.
# Chimeric anti-TnT antibody fragments were periplasmatically expressed in E. coli cells as described and were lyzed by methods known (for technical details see: Andersen, D. C. & Reilly, D. E. (2004); Production technologies for monoclonal antibodies and their fragments. Curr Opin Biotechnol 15, 456-62). The lysates were diluted 1:20 in sample buffer. Fab fragments were captured via their humanized framework regions from the expression lysates on the biosensor at a flow rate of 10 μl/min for 1 min followed by a 2 min washing step with 10-fold concentrated HBS-EP buffer at 30 μl/min. The Fab fragment capture level (CL) in response units (RU) was monitored. Recombinant human TnT (Roche, 37 kDa) was diluted in sample buffer at 90 nM and a concentration series was produced with […], 30 nM, 11 nM, 3.3 nM, 1.1 nM, 0 nM, 3.3 nM TnT concentration. The analyte concentration series were 80 μl/min for 3 min association phase and the dissociation phase was monitored for 3 min.
# The kinetic parameters ka [1/Ms], kd [1/s], t1/2 diss [min], KD [M] and the binding stoichiometry (Molar Ratio) (for details see: Schraeml, M. & Biehl, M. (2012); Kinetic screening in the antibody development process. Methods Mol Biol 901, 171-81.) of the cTnT analyte were determined for each Fab fragment mutant with the Biaevaluation Software (GE healthcare) according to the manufacturer's instructions.
Binder,Kd [nM],MR (Molar Ratio),koff [s⁻¹],kon [M⁻¹ s⁻¹],t/2-diss [min]
"anti-cTnT Fab mutant 18 (V101Y) (Fab, V domains shown, it was tied to mutant 18 by the printed mutation V101Y; also called combination 18) VH: EVQLQQSGPELVKPGASVKMSCKASGYTFTDYYMKWVKQSHGKSLEWIGDINPNNGETFYNQKFKDKATLTVDKSSSTAYMQLNSLTSEDSAVYYCATRYFDYWGQGTTLTVSS VL: DIVLTQSPASLAVSLGQRATISCKASQSVDYDGTSYMNWFQQKAGQPPKRLIYAASNLESGIPARFSGRGSGTDFALNIHPVEEEDAATYYCQQSNEDPYTFGGGTKLEIK",1.6,0.5,0.0047,2.9e+06,2
"anti-cTnT Fab mutant 22 (F60W, Y104F) (Fab, V domains shown, also called combination 22) VH: EVQLQQSGPELVKPGASVKMSCKASGYTFTDYYMKWVKQSHGKSLEWIGDINPNNGETWYNQKFKDKATLTVDKSSSTAYMQLNSLTSEDSAVYYCATRVFDFWGQGTTLTVSS VL: DIVLTQSPASLAVSLGQRATISCKASQSVDYDGTSYMNWFQQKAGQPPKRLIYAASNLESGIPARFSGRGSGTDFALNIHPVEEEDAATYYCQQSNEDPYTFGGGTKLEIK",,0.7,0.0011,3e+06,10
"anti-cTnT Fab mutant 23 (F60W, V101Y + Y104F) (Fab, V domains shown, it was tied to mutant 23 by the printed mutations; also called combination 23) VH: EVQLQQSGPELVKPGASVKMSCKASGYTFTDYYMKWVKQSHGKSLEWIGDINPNNGETWYNQKFKDKATLTVDKSSSTAYMQLNSLTSEDSAVYYCATRYFDFWGQGTTLTVSS VL: DIVLTQSPASLAVSLGQRATISCKASQSVDYDGTSYMNWFQQKAGQPPKRLIYAASNLESGIPARFSGRGSGTDFALNIHPVEEEDAATYYCQQSNEDPYTFGGGTKLEIK",1.2,0.6,0.0034,2.8e+06,3
"anti-cTnT Fab mutant 21 (F60W, V101Y) (Fab, V domains shown, also called combination 21) VH: EVQLQQSGPELVKPGASVKMSCKASGYTFTDYYMKWVKQSHGKSLEWIGDINPNNGETWYNQKFKDKATLTVDKSSSTAYMQLNSLTSEDSAVYYCATRYFDYWGQGTTLTVSS VL: DIVLTQSPASLAVSLGQRATISCKASQSVDYDGTSYMNWFQQKAGQPPKRLIYAASNLESGIPARFSGRGSGTDFALNIHPVEEEDAATYYCQQSNEDPYTFGGGTKLEIK",1.6,0.5,0.0043,2.7e+06,
"anti-cTnT Fab mutant 20 (V101Y + Y104F) (Fab, V domains shown, also called combination 20) VH: EVQLQQSGPELVKPGASVKMSCKASGYTFTDYYMKWVKQSHGKSLEWIGDINPNNGETFYNQKFKDKATLTVDKSSSTAYMQLNSLTSEDSAVYYCATRYFDFWGQGTTLTVSS VL: DIVLTQSPASLAVSLGQRATISCKASQSVDYDGTSYMNWFQQKAGQPPKRLIYAASNLESGIPARFSGRGSGTDFALNIHPVEEEDAATYYCQQSNEDPYTFGGGTKLEIK",1.1,0.6,0.0034,3.1e+06,3
"anti-cTnT Fab mutant 19 (Y104F) (Fab, V domains shown, also called combination 19) VH: EVQLQQSGPELVKPGASVKMSCKASGYTFTDYYMKWVKQSHGKSLEWIGDINPNNGETFYNQKFKDKATLTVDKSSSTAYMQLNSLTSEDSAVYYCATRVFDFWGQGTTLTVSS VL: DIVLTQSPASLAVSLGQRATISCKASQSVDYDGTSYMNWFQQKAGQPPKRLIYAASNLESGIPARFSGRGSGTDFALNIHPVEEEDAATYYCQQSNEDPYTFGGGTKLEIK",0.46,0.8,0.0014,2.9e+06,8

# Molecular target: T1, recombinant human cardiac troponin T
# Assay: SPR (Biacore T200, 37 C), Fab captured, cTnT analyte; Fab fragment
# Method: as §1, with “The sensor was subsequently saturated with 1 M ethanolamine pH 8.5.” left out
# Chimeric anti-TnT antibody fragments were periplasmatically expressed in E. coli cells as described and were lyzed by methods known (for technical details see: Andersen, D. C. & Reilly, D. E. (2004); Production technologies for monoclonal antibodies and their fragments. Curr Opin Biotechnol 15, 456-62). […] The Fab fragment capture level (CL) in response units (RU) was monitored. […] The analyte concentration series were 80 μl/min for 3 min association phase and the dissociation phase was monitored for 3 min. […]
row,Binder,Kd [nM]
1,"anti-cTnT Fab mutant 22 (F60W, Y104F) (Fab, V domains shown, also called combination 22) VH: EVQLQQSGPELVKPGASVKMSCKASGYTFTDYYMKWVKQSHGKSLEWIGDINPNNGETWYNQKFKDKATLTVDKSSSTAYMQLNSLTSEDSAVYYCATRVFDFWGQGTTLTVSS VL: DIVLTQSPASLAVSLGQRATISCKASQSVDYDGTSYMNWFQQKAGQPPKRLIYAASNLESGIPARFSGRGSGTDFALNIHPVEEEDAATYYCQQSNEDPYTFGGGTKLEIK",0.38
